Source: patent US20220332804A1 (CSL INNOVATION, published 2022)

Key:
Assay in all cases: SPR, KD relative to WT C2;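 further: biacore SPR at 37 °C, anti-C2 mAbs captured on anti-human IgG chips with alanine or serine point mutants of C2 as analyte, KD from 1:1 fit compared with wild-type C2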
[1] = target: T1, human C2 D441A (human, UniProt P06681 21-752)
T1 sequence: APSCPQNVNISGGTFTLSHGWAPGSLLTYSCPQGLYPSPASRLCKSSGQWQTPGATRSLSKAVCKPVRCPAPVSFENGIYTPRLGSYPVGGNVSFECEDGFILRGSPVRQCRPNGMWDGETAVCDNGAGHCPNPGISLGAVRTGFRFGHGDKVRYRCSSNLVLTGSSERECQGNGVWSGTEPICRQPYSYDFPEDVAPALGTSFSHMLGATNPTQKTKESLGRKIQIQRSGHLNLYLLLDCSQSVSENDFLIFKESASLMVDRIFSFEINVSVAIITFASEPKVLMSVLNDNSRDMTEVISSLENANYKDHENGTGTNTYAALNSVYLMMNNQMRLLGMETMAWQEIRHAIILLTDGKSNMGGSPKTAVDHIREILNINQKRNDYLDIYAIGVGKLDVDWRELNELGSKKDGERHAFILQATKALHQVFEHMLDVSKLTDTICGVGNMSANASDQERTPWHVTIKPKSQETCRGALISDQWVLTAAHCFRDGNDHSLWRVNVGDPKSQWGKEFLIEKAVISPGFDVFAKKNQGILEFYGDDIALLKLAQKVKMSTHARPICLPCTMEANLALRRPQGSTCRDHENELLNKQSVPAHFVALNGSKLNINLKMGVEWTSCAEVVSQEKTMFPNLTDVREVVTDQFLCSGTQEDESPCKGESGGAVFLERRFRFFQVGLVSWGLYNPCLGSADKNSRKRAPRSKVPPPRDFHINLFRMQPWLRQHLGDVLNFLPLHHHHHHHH

[2] = target: T2, human C2 N327A (human, UniProt P06681 21-752)
T2 sequence: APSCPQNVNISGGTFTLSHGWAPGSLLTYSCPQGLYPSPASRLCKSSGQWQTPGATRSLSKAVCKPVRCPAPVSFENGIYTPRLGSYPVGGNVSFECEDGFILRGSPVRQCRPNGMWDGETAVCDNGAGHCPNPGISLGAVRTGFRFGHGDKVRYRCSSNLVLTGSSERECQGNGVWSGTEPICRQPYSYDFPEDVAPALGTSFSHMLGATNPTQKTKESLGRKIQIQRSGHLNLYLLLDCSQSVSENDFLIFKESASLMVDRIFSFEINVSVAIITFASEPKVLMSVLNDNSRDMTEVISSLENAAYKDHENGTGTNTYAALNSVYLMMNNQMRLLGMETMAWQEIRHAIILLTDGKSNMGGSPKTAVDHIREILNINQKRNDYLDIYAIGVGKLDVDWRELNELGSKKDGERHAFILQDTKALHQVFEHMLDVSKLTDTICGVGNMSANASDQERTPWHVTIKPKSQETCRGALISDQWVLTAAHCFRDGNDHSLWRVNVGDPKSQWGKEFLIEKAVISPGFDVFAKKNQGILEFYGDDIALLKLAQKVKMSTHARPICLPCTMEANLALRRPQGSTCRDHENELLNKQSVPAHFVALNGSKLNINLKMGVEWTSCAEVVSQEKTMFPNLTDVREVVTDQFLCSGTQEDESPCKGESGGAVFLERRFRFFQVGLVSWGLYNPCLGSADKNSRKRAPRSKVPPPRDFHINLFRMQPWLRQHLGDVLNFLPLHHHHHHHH

[3] = target: T3, human C2 F437A (human, UniProt P06681 21-752)
T3 sequence: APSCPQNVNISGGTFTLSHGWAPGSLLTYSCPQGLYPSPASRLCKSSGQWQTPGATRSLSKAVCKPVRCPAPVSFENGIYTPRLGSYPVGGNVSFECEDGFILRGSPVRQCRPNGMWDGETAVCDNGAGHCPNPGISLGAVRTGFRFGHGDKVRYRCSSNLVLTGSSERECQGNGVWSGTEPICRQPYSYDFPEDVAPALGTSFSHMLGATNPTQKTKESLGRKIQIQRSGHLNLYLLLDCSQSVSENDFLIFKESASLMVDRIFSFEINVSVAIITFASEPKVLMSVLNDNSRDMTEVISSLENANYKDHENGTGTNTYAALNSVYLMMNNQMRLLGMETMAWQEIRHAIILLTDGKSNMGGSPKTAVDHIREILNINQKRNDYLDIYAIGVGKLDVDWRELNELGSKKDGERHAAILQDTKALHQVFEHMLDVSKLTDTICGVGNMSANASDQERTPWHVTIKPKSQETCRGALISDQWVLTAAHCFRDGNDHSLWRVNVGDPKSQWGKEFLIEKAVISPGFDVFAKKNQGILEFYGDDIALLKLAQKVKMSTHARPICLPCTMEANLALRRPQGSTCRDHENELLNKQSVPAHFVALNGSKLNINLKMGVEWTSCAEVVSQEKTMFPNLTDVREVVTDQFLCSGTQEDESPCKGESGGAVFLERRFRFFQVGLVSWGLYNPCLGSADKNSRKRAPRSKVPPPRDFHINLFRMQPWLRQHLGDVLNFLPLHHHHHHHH

[4] = target: T4, human C2 E324A (human, UniProt P06681 21-752)
T4 sequence: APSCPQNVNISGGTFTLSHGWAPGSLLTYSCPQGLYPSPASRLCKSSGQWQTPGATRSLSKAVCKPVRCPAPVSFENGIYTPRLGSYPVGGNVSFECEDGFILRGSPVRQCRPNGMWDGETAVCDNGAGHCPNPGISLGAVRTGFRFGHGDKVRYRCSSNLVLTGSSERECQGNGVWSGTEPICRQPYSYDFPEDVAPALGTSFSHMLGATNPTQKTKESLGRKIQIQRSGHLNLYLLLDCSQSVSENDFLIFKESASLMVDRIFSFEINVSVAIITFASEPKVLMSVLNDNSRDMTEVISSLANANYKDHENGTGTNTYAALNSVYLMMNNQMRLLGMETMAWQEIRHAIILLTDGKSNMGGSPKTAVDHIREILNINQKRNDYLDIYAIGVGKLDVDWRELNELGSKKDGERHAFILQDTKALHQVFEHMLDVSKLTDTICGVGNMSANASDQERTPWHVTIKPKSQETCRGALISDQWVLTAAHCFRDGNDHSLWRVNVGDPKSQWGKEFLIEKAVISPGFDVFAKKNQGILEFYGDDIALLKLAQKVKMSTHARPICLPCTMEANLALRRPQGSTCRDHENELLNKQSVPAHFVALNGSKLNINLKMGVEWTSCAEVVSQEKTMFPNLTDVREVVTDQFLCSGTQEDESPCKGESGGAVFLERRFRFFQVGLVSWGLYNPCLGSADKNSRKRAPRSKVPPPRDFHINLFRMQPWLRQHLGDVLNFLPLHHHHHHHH

B1: RF16-242 (antibody, human IgG4 S228P, lambda, V domains shown)
VH: EVQLLQSGAEVKKPGESLKISCKGSGYSFTSYWIGWVRQMPGKGLEWMGIIYPGDSDTRYSPSFQGQVTISADKSISTAYLQWSSLKASDTAMYYCARRGHYGDYFDYWGQGTLVTVSS
VL: SYELTQPPSVSVSPGQTARITCSGDALPKKYAYWYHQKSGQAPVLVIYEDRRRPSEIPERFSGSSSGTMATLTITGAQVEDEGVYFCYSRDRAGNQRVFGGGTQLTVLG
notes: pH-dependent anti-C2 antibody from a phage display library
Fold diff [1]: 16 fold
Fold diff [2]: 5 fold
Fold diff [3]: 15 fold
Fold diff [4]: 2 fold
